Drawing on patent publication US20080187543A1, this text covers macrophage migration towards ZAMS medium (Boyden-type chemotaxis chamber), 5 µg/ml myostatin with 350 protein for one substance.

The target of the test is Recombinant myostatin. In words: cell-based or functional assay.

Turning to “350 protein (amino acids 267-350 of bovine myostatin) (from UniProt O18836 267-350)”, the macrophage migration towards ZAMS medium (Boyden-type chemotaxis chamber), 5 µg/ml myostatin with 350 protein at 10 and 25 µg/ml was 20 fold.
